The record followed here is publication PMC12264150, “A chromatin-remodeling-independent role for ATRX in protecting centromeric cohesion” (The EMBO Journal, 2025).

Assay [1] has as its target T1, MBP-Pds5B (1–300) (UniProt Q9NTI5 1-300).
T1 construct: Pds5B residues 1–300, in pMAL-C2E; also called recombinant MBP-Pds5B (1–300); purified MBP-Pds5B; source: E. coli BL21 (DE3), purified (Amylose Resin); not shown: MBP, N-terminal, kept
T1 sequence (looked up): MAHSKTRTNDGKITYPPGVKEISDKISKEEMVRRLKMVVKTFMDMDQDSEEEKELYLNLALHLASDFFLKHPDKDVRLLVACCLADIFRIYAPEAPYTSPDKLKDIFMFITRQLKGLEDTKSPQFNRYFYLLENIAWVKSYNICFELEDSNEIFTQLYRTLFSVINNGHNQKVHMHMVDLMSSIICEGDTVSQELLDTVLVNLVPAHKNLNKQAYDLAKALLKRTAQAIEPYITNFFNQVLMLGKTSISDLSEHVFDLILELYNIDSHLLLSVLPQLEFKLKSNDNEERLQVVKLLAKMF
Briefly: pull-down; competitive: purified MBP-Pds5B (1–300) mixed with GFP-2xStrep or increasing amounts of GFP-ATRX (1394–1443)-2xStrep (WT or Y1419A), pulled down with Wapl (1–28)-GST. As to conditions: both partners purified.

In assay [2] the target is T2, GST-Pds5B (1–300) (UniProt Q9NTI5 1-300).
T2 construct: Pds5B residues 1–300, in pGEX-4T1; also called GST-fused Pds5B (1–300) fragment; GST-Pds5B (1–300) WT; source: E. coli BL21 (DE3), purified (Glutathione Sepharose 4B); not shown: GST, N-terminal, kept
T2 sequence (looked up): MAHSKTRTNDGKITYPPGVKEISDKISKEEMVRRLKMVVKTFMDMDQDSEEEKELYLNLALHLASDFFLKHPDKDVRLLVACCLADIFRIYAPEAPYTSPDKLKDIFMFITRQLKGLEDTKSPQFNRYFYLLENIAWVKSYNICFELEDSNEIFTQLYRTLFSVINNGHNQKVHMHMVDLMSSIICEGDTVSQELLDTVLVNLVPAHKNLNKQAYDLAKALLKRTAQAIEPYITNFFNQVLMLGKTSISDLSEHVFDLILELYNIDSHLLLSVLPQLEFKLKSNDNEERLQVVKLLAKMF
Put plainly: pull-down; recombinant GFP-ATRX (1394–1443)-2xStrep (wild-type or mutants) pulled down with GST or GST-Pds5B (1–300); immunoblot for GFP and CBB. As to conditions: both partners purified. Background: In western blotting, separated proteins are transferred to a membrane and probed.

B1: Wapl (1–28)-GST (domain or fragment, UniProt Q7Z5K2 1-28, looked up)
chain: MTSRFGKTYSRKGGNGSSKFDEVFSNKR
notes: Wapl residues 1–28, in pETGEX-CT; also called short Wapl fragment (residues 1–28) containing the YSR motif; Wapl (1–28)-GST WT; source: E. coli BL21 (DE3), purified (Glutathione Sepharose 4B); not shown: GST, C-terminal, kept
In the case of B1, in assay [1], the binding result is listed as “binds”.

B2: GFP-ATRX (1394–1443)-2xStrep (domain or fragment, UniProt P46100 1394-1443, looked up)
chain: SESEDEQRPRTRSAKKAELEENQRSYKQKKKRRRIKVQEDSSSENKSNSE
notes: source: E. coli BL21 (DE3), purified (Strep-Tactin Superflow); not shown: GFP, N-terminal, kept; 2xStrep, C-terminal, kept
For the molecule B2, the binding result in assay [2] and in assay [1] was “binds” in each case.

B3: GFP-ATRX (1394–1443)-2xStrep N1415A (domain or fragment, UniProt P46100 1394-1443, looked up)
chain: SESEDEQRPRTRSAKKAELEEAQRSYKQKKKRRRIKVQEDSSSENKSNSE
notes: as for B2
In the case of B3, in assay [2], the binding result is given as “binds”.

B4: GFP-ATRX (1394–1443)-2xStrep K1420A (domain or fragment, UniProt P46100 1394-1443, looked up)
chain: SESEDEQRPRTRSAKKAELEENQRSYAQKKKRRRIKVQEDSSSENKSNSE
notes: as for B2
For B4, in assay [2], the binding result is reported as “binds”.

B5: GFP-ATRX (1394–1443)-2xStrep Q1416A (domain or fragment, UniProt P46100 1394-1443, looked up)
chain: SESEDEQRPRTRSAKKAELEENARSYKQKKKRRRIKVQEDSSSENKSNSE
notes: as for B2
For B5, in assay [2], the binding result is reported as “binds”.

B6: GFP-ATRX (1394–1443)-2xStrep R1417A (domain or fragment, UniProt P46100 1394-1443, looked up)
chain: SESEDEQRPRTRSAKKAELEENQASYKQKKKRRRIKVQEDSSSENKSNSE
notes: as for B2
Turning to B6, the binding result in assay [2] is given as “binds”.

B7: GFP-ATRX (1394–1443)-2xStrep S1418A (domain or fragment, UniProt P46100 1394-1443, looked up)
chain: SESEDEQRPRTRSAKKAELEENQRAYKQKKKRRRIKVQEDSSSENKSNSE
notes: as for B2
As for B7, in assay [2], the binding result is given as “binds”.

B8: GFP-ATRX (1394–1443)-2xStrep Q1421A (domain or fragment, UniProt P46100 1394-1443, looked up)
chain: SESEDEQRPRTRSAKKAELEENQRSYKAKKKRRRIKVQEDSSSENKSNSE
notes: as for B2
As to B8, the binding result in assay [2] was “binds”.

B9: GFP-ATRX (1394–1443)-2xStrep E1413A (domain or fragment, UniProt P46100 1394-1443, looked up)
chain: SESEDEQRPRTRSAKKAELAENQRSYKQKKKRRRIKVQEDSSSENKSNSE
notes: as for B2
On to B9, for which the binding result in assay [2] is recorded as “binds”.

B10: GFP-ATRX (1394–1443)-2xStrep E1414A (domain or fragment, UniProt P46100 1394-1443, looked up)
chain: SESEDEQRPRTRSAKKAELEANQRSYKQKKKRRRIKVQEDSSSENKSNSE
notes: as for B2
Regarding B10, in assay [2], the binding result was “binds”.
